Laboratory results published in patent publication US20250043302A1, “MUTATED HYDROXYPHENYLPYRUVATE DIOXYGENASE POLYPEPTIDE, AND CODING GENE AND USE THEREOF” (BEIJING DABEINONG BIOTECHNOLOGY CO., LTD., priority 2021, published 2025).

B1: HPPDm-5-02: nucleotide sequence encoding Avena sativa HPPD with A111T+K351N+F372A+F383W; vector DBN11786 (nucleic acid)
DNA: ATGCCACCTACTCCAGCTACAGCTACTGGTGCTGCTGCTGCTGCCGTTACTCCTGAGCACGCTGCCAGGTCATTCCCCAGGGTGGTTCGCGTGAACCCCAGATCTGATAGGTTCCCAGTTCTGAGCTTCCACCATGTTGAGCTGTGGTGCGCTGATGCTGCTTCTGCTGCTGGCAGGTTCTCTTTCGCTCTTGGTGCTCCACTCGCTGCTAGATCTGATCTGTCTACAGGAAATAGCGCTCATGCCTCACTCCTGCTTCGCTCAGGTGCTTTGGCCTTCCTCTTCACCGCTCCATATGCTCCCCCACCTCAGGAGGCTGCTACTGCTGCTACTACAGCCTCCATTCCAAGCTTCTCAGCTGATGCCGCTAGAACCTTCGCTGCTGCTCATGGACTTGCCGTGAGGTCTGTTGGTGTTCGCGTGGCTGATGCTGCTGAGGCTTTCAGAGTTTCCGTTGCCGGCGGAGCTAGGCCAGCTTTCGCTCCTGCTGATTTGGGACATGGTTTCGGCCTGGCTGAGGTTGAGCTTTACGGTGACGTGGTTCTCCGCTTCGTGTCTTACCCAGATGAGACTGACCTGCCTTTCCTTCCCGGCTTCGAGAGAGTTTCCTCTCCTGGTGCCGTGGATTACGGCCTGACAAGGTTCGACCACGTGGTTGGAAACGTTCCCGAGATGGCTCCAGTGATCGATTACATGAAGGGCTTCCTTGGATTCCATGAGTTCGCCGAGTTCACTGCTGAGGACGTGGGAACCACTGAGTCCGGTTTGAACTCTGTGGTTCTCGCCAACAATTCTGAGGCTGTTTTGCTCCCTCTGAATGAGCCTGTGCATGGAACCAAGAGGAGAAGCCAGATTCAAACTTACCTGGAGTACCACGGTGGCCCTGGAGTTCAGCATATCGCCCTTGCTTCTAATGATGTGTTGCGCACACTCAGAGAGATGCGCGCCAGAACCCCCATGGGAGGTTTCGAGTTCATGGCCCCACCACAGGCTAAGTACTACGAGGGCGTTAGAAGGATTGCTGGAGACGTGTTGAGCGAGGAGCAGATCAATGAGTGCCAAGAGCTGGGTGTTCTTGTGGATAGGGATGACCAGGGCGTTCTGCTTCAAATTGCCACTAAGCCAGTGGGCGACCGCCCTACATTCTGGCTTGAGATGATTCAAAGAATCGGCTGCATGGAGAAGGATGAGGTTGGACAGGAGTACCAAAAGGGCGGATGCGGTGGCTTCGGAAAGGGTAACTTCAGCGAGTTGTTCAAGTCAATCGAGGACTACGAGAAGAGCCTCGAGGTGAAGCAGTCAGTGGTTGCCCAAAAGTCCTGA
modifications: HPPDm-5-02 Nucleotide Sequence
notes: vector DBN11786
B2: HPPDm-4-02: nucleotide sequence encoding Avena sativa HPPD with A107 deletion+K351N+F372A+F383W; vector DBN11785 (nucleic acid)
DNA: ATGCCACCTACTCCAGCTACAGCTACTGGTGCTGCTGCTGCTGCCGTTACTCCTGAGCACGCTGCCAGGTCATTCCCCAGGGTGGTTCGCGTGAACCCCAGATCTGATAGGTTCCCAGTTCTGAGCTTCCACCATGTTGAGCTGTGGTGCGCTGATGCTGCTTCTGCTGCTGGCAGGTTCTCTTTCGCTCTTGGTGCTCCACTCGCTGCTAGATCTGATCTGTCTACAGGAAATAGCGCTCATGCCTCACTCCTGCTTCGCTCAGGTGCTTTGGCCTTCCTCTTCACCGCTCCATATGCTCCCCCACCTCAGGAGGCTACTGCTGCTGCTACAGCCTCCATTCCAAGCTTCTCAGCTGATGCCGCTAGAACCTTCGCTGCTGCTCATGGACTTGCCGTGAGGTCTGTTGGTGTTCGCGTGGCTGATGCTGCTGAGGCTTTCAGAGTTTCCGTTGCCGGCGGAGCTAGGCCAGCTTTCGCTCCTGCTGATTTGGGACATGGTTTCGGCCTGGCTGAGGTTGAGCTTTACGGTGACGTGGTTCTCCGCTTCGTGTCTTACCCAGATGAGACTGACCTGCCTTTCCTTCCCGGCTTCGAGAGAGTTTCCTCTCCTGGTGCCGTGGATTACGGCCTGACAAGGTTCGACCACGTGGTTGGAAACGTTCCCGAGATGGCTCCAGTGATCGATTACATGAAGGGCTTCCTTGGATTCCATGAGTTCGCCGAGTTCACTGCTGAGGACGTGGGAACCACTGAGTCCGGTTTGAACTCTGTGGTTCTCGCCAACAATTCTGAGGCTGTTTTGCTCCCTCTGAATGAGCCTGTGCATGGAACCAAGAGGAGAAGCCAGATTCAAACTTACCTGGAGTACCACGGTGGCCCTGGAGTTCAGCATATCGCCCTTGCTTCTAATGATGTGTTGCGCACACTCAGAGAGATGCGCGCCAGAACCCCCATGGGAGGTTTCGAGTTCATGGCCCCACCACAGGCTAAGTACTACGAGGGCGTTAGAAGGATTGCTGGAGACGTGTTGAGCGAGGAGCAGATCAATGAGTGCCAAGAGCTGGGTGTTCTTGTGGATAGGGATGACCAGGGCGTTCTGCTTCAAATTGCCACTAAGCCAGTGGGCGACCGCCCTACATTCTGGCTTGAGATGATTCAAAGAATCGGCTGCATGGAGAAGGATGAGGTTGGACAGGAGTACCAAAAGGGCGGATGCGGTGGCTTCGGAAAGGGTAACTTCAGCGAGTTGTTCAAGTCAATCGAGGACTACGAGAAGAGCCTCGAGGTGAAGCAGTCAGTGGTTGCCCAAAAGTCCTGA
modifications: HPPDm-4-02 Nucleotide Sequence
notes: vector DBN11785

Tests used:
Format in all cases: in vivo
[1] = tested on: Arabidopsis thaliana T1 plants; assay: Mesotrione tolerance of transgenic Arabidopsis thaliana T1 plants (spray, bleached leaf area grade, damage score); set-up: Scores: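 damage score 0-100 computed as Σ(N×S)/(T×M)×100 over grades 0-3 with higher meaning more damage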; details: Table 12; for Classification and statistics of the grade of pesticide damage Grade 0: number of plants at grade 0; for Classification and statistics of the grade of pesticide damage Grade 1: number of plants at grade 1; for Classification and statistics of the grade of pesticide damage Grade 2: number of plants at grade 2; for Classification and statistics of the grade of pesticide damage Grade 3: number of plants at grade 3; for Scores: pesticide damage score
Method in brief: (§1)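 Read-out: per-plant damage grade 0–3 from proportion of bleached leaf area at 7 DAT (1 <50%, 2 >50%, 3 100%). Plants were T1 transformants, glufosinate-selected, plus wild-type CK, sprayed 18 days post-sowing. Rates: topramezone 25–200, isoxaflutole 35–280, mesotrione 52.5–420 g ai/ha.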

[2] = tested on: Arabidopsis thaliana T1 plants; assay: Isoxaflutole tolerance of transgenic Arabidopsis thaliana T1 plants (spray, bleached leaf area grade, damage score); details: Table 11; for Classification and statistics of the grade of pesticide damage Grade 0: number of plants at grade 0; for Classification and statistics of the grade of pesticide damage Grade 1: number of plants at grade 1; for Classification and statistics of the grade of pesticide damage Grade 2: number of plants at grade 2; for Classification and statistics of the grade of pesticide damage Grade 3: number of plants at grade 3; for Scores: pesticide damage score;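 on Scores: Weighted damage index from 0 to 100 where higher means more damage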
Method in brief: as §1

[3] = tested on: Arabidopsis thaliana T1 plants; assay: Topramezone tolerance of transgenic Arabidopsis thaliana T1 plants (spray, bleached leaf area grade, damage score); details: Table 10; for Classification and statistics of the grade of pesticide damage Grade 0: number of plants at grade 0; for Classification and statistics of the grade of pesticide damage Grade 1: number of plants at grade 1; for Classification and statistics of the grade of pesticide damage Grade 2: number of plants at grade 2; for Classification and statistics of the grade of pesticide damage Grade 3: number of plants at grade 3; for Scores: pesticide damage score
Method in brief: as §1

Molecule | Resistance evaluation ([1]; mesotrione 210 g ai/ha (2×)) | Classification and statistics of the grade of pesticide damage Grade 0 ([1]; mesotrione 210 g ai/ha (2×)) | Classification and statistics of the grade of pesticide damage Grade 1 ([1]; mesotrione 210 g ai/ha (2×)) | Classification and statistics of the grade of pesticide damage Grade 2 ([1]; mesotrione 210 g ai/ha (2×)) | Classification and statistics of the grade of pesticide damage Grade 3 ([1]; mesotrione 210 g ai/ha (2×)) | Scores ([1]; mesotrione 210 g ai/ha (2×)) | Resistance evaluation ([1]; mesotrione 420 g ai/ha (4×)) | Classification and statistics of the grade of pesticide damage Grade 0 ([1]; mesotrione 420 g ai/ha (4×)) | Classification and statistics of the grade of pesticide damage Grade 1 ([1]; mesotrione 420 g ai/ha (4×)) | Classification and statistics of the grade of pesticide damage Grade 2 ([1]; mesotrione 420 g ai/ha (4×)) | Classification and statistics of the grade of pesticide damage Grade 3 ([1]; mesotrione 420 g ai/ha (4×)) | Scores ([1]; mesotrione 420 g ai/ha (4×)) | Resistance evaluation ([2]; isoxaflutole 140 g ai/ha (2×)) | Classification and statistics of the grade of pesticide damage Grade 0 ([2]; isoxaflutole 140 g ai/ha (2×)) | Classification and statistics of the grade of pesticide damage Grade 1 ([2]; isoxaflutole 140 g ai/ha (2×)) | Classification and statistics of the grade of pesticide damage Grade 2 ([2]; isoxaflutole 140 g ai/ha (2×)) | Classification and statistics of the grade of pesticide damage Grade 3 ([2]; isoxaflutole 140 g ai/ha (2×)) | Scores ([2]; isoxaflutole 140 g ai/ha (2×)) | Resistance evaluation ([2]; isoxaflutole 280 g ai/ha (4×)) | Classification and statistics of the grade of pesticide damage Grade 0 ([2]; isoxaflutole 280 g ai/ha (4×)) | also measured
B1 | Highly resistant | 16 | 0 | 0 | 0 | 0 | Highly resistant | 16 | 0 | 0 | 0 | 0 | Highly resistant | 16 | 0 | 0 | 0 | 0 | Highly resistant | 14 | Classification and statistics of the grade of pesticide damage Grade 1 ([2]; isoxaflutole 280 g ai/ha (4×)): 1; Classification and statistics of the grade of pesticide damage Grade 2 ([2]; isoxaflutole 280 g ai/ha (4×)): 1; Classification and statistics of the grade of pesticide damage Grade 3 ([2]; isoxaflutole 280 g ai/ha (4×)): 0; Scores ([2]; isoxaflutole 280 g ai/ha (4×)): 6; Resistance evaluation ([3]; topramezone 100 g ai/ha (4×)): Highly resistant; Classification and statistics of the grade of pesticide damage Grade 0 ([3]; topramezone 100 g ai/ha (4×)): 16; Classification and statistics of the grade of pesticide damage Grade 1 ([3]; topramezone 100 g ai/ha (4×)): 0; Classification and statistics of the grade of pesticide damage Grade 2 ([3]; topramezone 100 g ai/ha (4×)): 0; Classification and statistics of the grade of pesticide damage Grade 3 ([3]; topramezone 100 g ai/ha (4×)): 0; Scores ([3]; topramezone 100 g ai/ha (4×)): 0; Resistance evaluation ([3]; topramezone 200 g ai/ha (8×)): Highly resistant; Classification and statistics of the grade of pesticide damage Grade 0 ([3]; topramezone 200 g ai/ha (8×)): 16; Classification and statistics of the grade of pesticide damage Grade 1 ([3]; topramezone 200 g ai/ha (8×)): 0; Classification and statistics of the grade of pesticide damage Grade 2 ([3]; topramezone 200 g ai/ha (8×)): 0; Classification and statistics of the grade of pesticide damage Grade 3 ([3]; topramezone 200 g ai/ha (8×)): 0; Scores ([3]; topramezone 200 g ai/ha (8×)): 0
B2 | Highly resistant | 16 | 0 | 0 | 0 | 0 | Highly resistant | 15 | 1 | 0 | 0 | 2 | Highly resistant | 16 | 0 | 0 | 0 | 0 | Highly resistant | 13 | Classification and statistics of the grade of pesticide damage Grade 1 ([2]; isoxaflutole 280 g ai/ha (4×)): 3; Classification and statistics of the grade of pesticide damage Grade 2 ([2]; isoxaflutole 280 g ai/ha (4×)): 0; Classification and statistics of the grade of pesticide damage Grade 3 ([2]; isoxaflutole 280 g ai/ha (4×)): 0; Scores ([2]; isoxaflutole 280 g ai/ha (4×)): 6; Resistance evaluation ([3]; topramezone 100 g ai/ha (4×)): Highly resistant; Classification and statistics of the grade of pesticide damage Grade 0 ([3]; topramezone 100 g ai/ha (4×)): 16; Classification and statistics of the grade of pesticide damage Grade 1 ([3]; topramezone 100 g ai/ha (4×)): 0; Classification and statistics of the grade of pesticide damage Grade 2 ([3]; topramezone 100 g ai/ha (4×)): 0; Classification and statistics of the grade of pesticide damage Grade 3 ([3]; topramezone 100 g ai/ha (4×)): 0; Scores ([3]; topramezone 100 g ai/ha (4×)): 0; Resistance evaluation ([3]; topramezone 200 g ai/ha (8×)): Highly resistant; Classification and statistics of the grade of pesticide damage Grade 0 ([3]; topramezone 200 g ai/ha (8×)): 16; Classification and statistics of the grade of pesticide damage Grade 1 ([3]; topramezone 200 g ai/ha (8×)): 0; Classification and statistics of the grade of pesticide damage Grade 2 ([3]; topramezone 200 g ai/ha (8×)): 0; Classification and statistics of the grade of pesticide damage Grade 3 ([3]; topramezone 200 g ai/ha (8×)): 0; Scores ([3]; topramezone 200 g ai/ha (8×)): 0
